Test [1] addresses T1, Human OX40 protein having a His-Tag (human, UniProt P43489 29-216, limits assumed).
T1 construct: Bought recombinant protein; also called hOX40-His; hOX40; not shown: His tag
T1 sequence (looked up): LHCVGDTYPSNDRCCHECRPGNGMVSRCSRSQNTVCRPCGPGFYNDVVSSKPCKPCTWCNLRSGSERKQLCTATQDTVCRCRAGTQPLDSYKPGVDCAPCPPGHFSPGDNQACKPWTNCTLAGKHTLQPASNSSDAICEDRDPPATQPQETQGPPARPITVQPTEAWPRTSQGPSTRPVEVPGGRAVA
Put plainly: SPR Biacore 8K, Protein A chip; antibody captured, antigen analyte. For orientation: Surface plasmon resonance follows binding to a sensor surface in real time, without labels.

The target in test [2] is T2, human OX40 expressed on transfected cells (human, UniProt P43489 29-277).
T2 construct: whole, on cells; also called hOX40 on HEK293T-hCTLA4-hOX40 cells; on Jurkat-luc-hOX40
T2 sequence (looked up): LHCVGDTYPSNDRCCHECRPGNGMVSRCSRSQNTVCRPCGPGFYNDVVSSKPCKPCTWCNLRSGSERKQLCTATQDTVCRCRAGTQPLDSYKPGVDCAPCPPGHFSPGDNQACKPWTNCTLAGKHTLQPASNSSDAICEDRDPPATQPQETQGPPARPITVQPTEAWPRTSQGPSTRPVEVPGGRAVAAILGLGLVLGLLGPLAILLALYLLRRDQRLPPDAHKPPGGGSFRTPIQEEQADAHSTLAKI
Put plainly: flow cytometry (MFI, anti-hIgG-Fc-Alexa Fluor 647) on HEK293T-hCTLA4-hOX40 cells co-expressing human CTLA4 and human OX40.

The target in test [3] is T2, human OX40 expressed on transfected …. Briefly: flow cytometry (MFI, anti-hIgG-Fc-Alexa Fluor 647) on HEK293T-hCTLA4-hOX40 cells co-expressing human CTLA4 and human OX40; the bispecific can bind both antigens on the same cell, signal not separable by target. For orientation: Flow cytometry measures light scatter and fluorescence of single cells or particles in a stream.

Test [4] has as its target T3, human CTLA4 expressed on transfected cells (human, UniProt P16410 36-223).
T3 construct: whole, on cells; also called hCTLA4 on HEK293T-hCTLA4-hOX40 cells; on Jurkat-luc-hCTLA4
T3 sequence (looked up): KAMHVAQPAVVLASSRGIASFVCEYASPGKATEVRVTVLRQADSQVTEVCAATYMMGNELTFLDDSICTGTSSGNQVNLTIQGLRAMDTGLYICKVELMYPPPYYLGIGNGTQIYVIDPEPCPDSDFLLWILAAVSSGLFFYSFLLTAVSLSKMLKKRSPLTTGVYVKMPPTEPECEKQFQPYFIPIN
The test is described as above.

The target of test [5] is T4, Cynomolgus/Rhesus macaque OX40/TNFRSF4/CD134 Protein, His Tag (Cynomolgus/Rhesus macaque).
T4 construct: Bought recombinant protein; also called fasOX40-His; monkey OX40
Briefly: SPR Biacore 8K, Protein A chip; antibody captured, antigen analyte.

Test [6] concerns the target T1, Human OX40 protein having a His-Tag. The test is described as above. The source holds these as a separate data set.
Test [7] deals with T3, human CTLA4 expressed on transfected …. Briefly: flow cytometry (MFI, anti-hIgG-Fc-Alexa Fluor 647) on HEK293T-hCTLA4-hOX40 cells co-expressing human CTLA4 and human OX40.
In test [8] the target is T5, Human CTLA4 protein having a His-Tag (human, UniProt P16410 37-162, limits assumed).
T5 construct: Bought recombinant protein; also called hCTLA4-His; hCTLA4; not shown: His tag
T5 sequence (looked up): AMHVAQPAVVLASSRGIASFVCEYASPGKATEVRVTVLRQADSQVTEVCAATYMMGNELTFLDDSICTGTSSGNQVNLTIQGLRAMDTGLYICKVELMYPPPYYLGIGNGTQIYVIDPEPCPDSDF
Briefly: SPR Biacore 8K, Protein A chip; antibody captured, antigen analyte.

The target of test [9] is T3, human CTLA4 expressed on transfected …. Briefly: flow cytometry (MFI, anti-hIgG-Fc-Alexa Fluor 647) on HEK293T-hCTLA4-hOX40 cells co-expressing human CTLA4 and human OX40. The source holds these as a separate data set.
Test [10] shares this target. Described as above. The source holds these as a separate data set.
The target in test [11] is T2, human OX40 expressed on transfected …. Put plainly: flow cytometry (MFI, anti-hIgG-Fc-Alexa Fluor 647) on HEK293T-hCTLA4-hOX40 cells co-expressing human CTLA4 and human OX40; the bispecific can bind both antigens on the same cell, signal not separable by target. This is another data set of the same source.
Test [12] concerns the target T3, human CTLA4 expressed on transfected …. The description is as above. This is another data set of the same source.
The target in test [13] is T2, human OX40 expressed on transfected …. The description is as above. This is another data set of the same source.
Test [14] addresses T3, human CTLA4 expressed on transfected …. The test is described as above. This is another data set of the same source.
Test [15] has as its target T2, human OX40 expressed on transfected …. Briefly: flow cytometry (MFI, anti-hIgG-Fc-Alexa Fluor 647) on HEK293T-hCTLA4-hOX40 cells co-expressing human CTLA4 and human OX40. This is another data set of the same source.

A word on the Kd: it is the constant that tells how readily two partners part at equilibrium. Low values mean higher affinity, high ones lower affinity. As a reminder, the koff is a measure of how fast the partners let go of each other. Read a high koff as a short-lived complex. In general, kon refers to the second-order rate constant of association. Read a high kon as faster complex formation. Broadly, the EC50 (read off the curve) is the concentration needed to bring the measured effect to its halfway point. A lower EC50 (read off the curve) goes with greater potency.

Read-outs that look alike come from different tables or passages of the source.

B1: OX-H8-IgG1 (antibody, V domains shown)
VH: QITLKESGPTLVKPTQTLTLTCTFSGFSLSSRGVGVGWIRQPPGKALEWLALIYWDDDKRYSPSLKSRLTITKDTSKNQVVLTMANMDPVDTATYYCAHSHRGYENFWGQGTLVTVSS
VL: EIVLTQSPATLSLSPGERATLSCRASQSINSYLAWYQQNPGQAPRLLIYLASNRATGIPARFSGSGSGTDFTLTITSLEPEDFAVYYCQQRSDWPPTFGQGTKVEIK
notes: Monoclonal anti-OX40 antibody, IgG1 constant regions
B1: in test [1], binding was put at a Kd of 8.68 nM, the off-rate constant (koff) was determined as 0.00441 s⁻¹ and the kon worked out at 508000 M⁻¹ s⁻¹. Further, the “EC50 (read off the curve)” value in [2] was ~7 µg/mL.

B2: OX-H7-CT-3D2-IgG1-SI (bispecific antibody, V domains shown)
VH 1: QITLKESGPTLVKPAQTLTLTCTFSGFSLSTSGVGVGWIRQPPGKALEWLALIYWDDDKLYSPSLKSRLTITKDTSKNQVVLAMTNMDPVDTATYYCAHSQLGRDDYWGQGTLVTVSS
VH 2: QVQLVESGPGLVKPSETLSLTCTVSGDSIRSSHYYWGWIRQPPGKGLEWIGSIYFNGITYYSPSLKSRVTISVDTSKNQFSLKLTSVTAADTAVFYCARHNNYYDSSGYWYYFDYWGQGTLVTVSS
VL: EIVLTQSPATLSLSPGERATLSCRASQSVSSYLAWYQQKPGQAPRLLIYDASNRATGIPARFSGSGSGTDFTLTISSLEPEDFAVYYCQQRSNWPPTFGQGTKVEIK
notes: SI mutations (S239D, I332E, EU)
Regarding B2, the “EC50 (read off the curve)” value in test [3] is ~1 µg/mL. Also, the “EC50 (read off the curve)” value in test [4] is ~1 µg/mL. Also, in test [5], the Kd stood at 163 nM, the koff was 0.001 s⁻¹ and the kon was determined as 6170 M⁻¹ s⁻¹. In test [6], this molecule gave a Kd of 182 nM, a koff of 0.00169 s⁻¹ and a kon of 9260 M⁻¹ s⁻¹.

B3: CT-3D2-IgG1 (antibody, V domains shown)
VH: QVQLVESGPGLVKPSETLSLTCTVSGDSIRSSHYYWGWIRQPPGKGLEWIGSIYFNGITYYSPSLKSRVTISVDTSKNQFSLKLTSVTAADTAVFYCARHNNYYDSSGYWYYFDYWGQGTLVTVSS
VL: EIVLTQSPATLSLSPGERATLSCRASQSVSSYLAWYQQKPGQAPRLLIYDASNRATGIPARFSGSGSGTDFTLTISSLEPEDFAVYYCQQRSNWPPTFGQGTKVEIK
notes: Human anti-CTLA4 antibody from RenLite mice
For the molecule B3, the “EC50 (read off the curve)” value in [7] is ~2 µg/mL. In test [8], this molecule showed a Kd of 17.1 nM, a koff of 0.00079 s⁻¹ and a kon of 46200 M⁻¹ s⁻¹. Besides, the “EC50 (read off the curve)” value in test [9] was ~2 µg/mL. The “EC50 (read off the curve)” value in test [10] is ~2 µg/mL.

B4: OX-4C8-CT-3D2-IgG1-SI (bispecific antibody, V domains shown)
VH 1: QVQLVESGPTLVKPTQTLTLTCTFSGFSLSTTRVGVGWIRQPPGKALEWLALIYWDDDKRYSPSLKNRLTLTKDTSKNQVVLTMTNMDPVDTATYYCAHFGSGTYYNVDYWGQGTLVTVSSAS
VH 2: QVQLVESGPGLVKPSETLSLTCTVSGDSIRSSHYYWGWIRQPPGKGLEWIGSIYFNGITYYSPSLKSRVTISVDTSKNQFSLKLTSVTAADTAVFYCARHNNYYDSSGYWYYFDYWGQGTLVTVSS
VL: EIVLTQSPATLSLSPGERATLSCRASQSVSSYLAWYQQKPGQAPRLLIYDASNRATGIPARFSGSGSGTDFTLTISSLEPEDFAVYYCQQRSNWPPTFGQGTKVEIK
notes: 1+1 knobs-into-holes human IgG1 with common light chain; SI mutations (S239D, I332E, EU)
As for B4, in [11], the “EC50 (read off the curve)” value is ~2 µg/mL. Further, the “EC50 (read off the curve)” value in test [12] is ~2 µg/mL. Further, in test [5], the Kd was 6.4 nM, the koff was found to be 0.0037 s⁻¹ and the kon is 578000 M⁻¹ s⁻¹. Also, in test [6], binding was characterised by a dissociation constant (Kd) of 17.6 nM, the koff was determined as 0.00258 s⁻¹ and the kon was 147000 M⁻¹ s⁻¹.

B5: OX-H8-CT-3D2-IgG1-SI (bispecific antibody, V domains shown)
VH 1: QITLKESGPTLVKPTQTLTLTCTFSGFSLSSRGVGVGWIRQPPGKALEWLALIYWDDDKRYSPSLKSRLTITKDTSKNQVVLTMANMDPVDTATYYCAHSHRGYENFWGQGTLVTVSS
VH 2: QVQLVESGPGLVKPSETLSLTCTVSGDSIRSSHYYWGWIRQPPGKGLEWIGSIYFNGITYYSPSLKSRVTISVDTSKNQFSLKLTSVTAADTAVFYCARHNNYYDSSGYWYYFDYWGQGTLVTVSS
VL: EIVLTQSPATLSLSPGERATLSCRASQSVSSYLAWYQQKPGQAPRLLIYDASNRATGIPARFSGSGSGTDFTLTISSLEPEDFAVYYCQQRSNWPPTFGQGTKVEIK
notes: as for B2
As to B5, the “EC50 (read off the curve)” value in [13] was ~1 µg/mL. For the same molecule, the “EC50 (read off the curve)” value in test [14] is ~1 µg/mL. In test [5], this molecule yielded a Kd of 18.9 nM, a koff of 0.00966 s⁻¹ and a kon of 510000 M⁻¹ s⁻¹. Also, in test [6], the Kd came out at 16 nM, the koff turned out to be 0.00784 s⁻¹ and the kon came out at 490000 M⁻¹ s⁻¹.

B6: OX-4C8-IgG1 (antibody, V domains shown)
VH: QVQLVESGPTLVKPTQTLTLTCTFSGFSLSTTRVGVGWIRQPPGKALEWLALIYWDDDKRYSPSLKNRLTLTKDTSKNQVVLTMTNMDPVDTATYYCAHFGSGTYYNVDY
VL: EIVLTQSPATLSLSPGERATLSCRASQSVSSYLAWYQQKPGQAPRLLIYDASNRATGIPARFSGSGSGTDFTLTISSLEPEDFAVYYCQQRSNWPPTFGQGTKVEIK
notes: Human anti-OX40 antibody; IgG1 constant regions
In test [1], B6 yielded a Kd of 65.4 nM, a koff of 0.00738 s⁻¹ and a kon of 113000 M⁻¹ s⁻¹. Moreover, the “EC50 (read off the curve)” value in [15] is ~0.3 µg/mL.

These data come from patent US20250115668A1 (BIOCYTOGEN PHARMACEUTICALS BEIJING, published 2025).
